For 1 substance, C50 results are on record in patent US20130115216A1.

Test [1] has as its target HLA-A2 (HLA-A*0201) (human). Put plainly: assembly assay, HLA-A2 recovery from T2 cell lysate.
For test [2], the target named is HLA-A2 (HLA-A*0201) (human). In words: assembly assay, HLA-A2 recovery from TAP-deficient cell lysate.

“C1 (HIV-1 pol476-484) (peptide; other documents disagree on this pair)”: the C50 was found to be 0.7 µM in test [1] and 0.2 µM in test [2].
